The source of these data is US20120321554A1 (MODIQUEST B V, published 2012).

The target in experiment [1] is T1, Bovine serum albumin (bovine, UniProt P02769 25-607).
T1 construct: Control coat in ELISA; also called BSA
The experiment is described as follows: phage ELISA, anti-M13 detection.

Experiment [2] deals with mouse plexin D1 (on vessels in mouse tissue) (mouse) (UniProt Q3UH93). The experiment is described as follows: cell-based or functional assay.
Experiment [3] deals with T2, PLXND1-peptide-KLH conjugate (human, also: conjugated to KLH, attachment site not given here).
T2 construct: Coupled to a CM5 chip (27 ug/ml in Na-Acetate pH 4.0) for the Biacore measurements; also called KLH-conjugated peptide
T2 peptide: ALEIQRRFPSPTPTNC-NH2
The experiment can be described thus: SPR, Biacore 2000; peptide-KLH conjugate on CM5 chip, sdab in solution, BSA surface subtracted, 1:1 Langmuir model. Background: In SPR one partner is held on a chip, and binding of the other changes the refractive index at the surface.

The target in experiment [4] is T1, Bovine serum albumin. The experiment can be described thus: ELISA with soluble sdab, detection via VSV-G-tag.
For experiment [5], the target named is T3, human plexin D1 (in sections of human tumors) (human, UniProt Q9Y4D7 47-1925).
T3 construct: whole, on cells; Endogenous protein on tumor cells and vessels in tissue sections (immunohistochemistry); also called PLXND1
The experiment is described as follows: immunohistochemistry on human tumor tissue.

Where no end group is shown, it is not given here.

T1 sequence (P02769 25-607 limits assumed): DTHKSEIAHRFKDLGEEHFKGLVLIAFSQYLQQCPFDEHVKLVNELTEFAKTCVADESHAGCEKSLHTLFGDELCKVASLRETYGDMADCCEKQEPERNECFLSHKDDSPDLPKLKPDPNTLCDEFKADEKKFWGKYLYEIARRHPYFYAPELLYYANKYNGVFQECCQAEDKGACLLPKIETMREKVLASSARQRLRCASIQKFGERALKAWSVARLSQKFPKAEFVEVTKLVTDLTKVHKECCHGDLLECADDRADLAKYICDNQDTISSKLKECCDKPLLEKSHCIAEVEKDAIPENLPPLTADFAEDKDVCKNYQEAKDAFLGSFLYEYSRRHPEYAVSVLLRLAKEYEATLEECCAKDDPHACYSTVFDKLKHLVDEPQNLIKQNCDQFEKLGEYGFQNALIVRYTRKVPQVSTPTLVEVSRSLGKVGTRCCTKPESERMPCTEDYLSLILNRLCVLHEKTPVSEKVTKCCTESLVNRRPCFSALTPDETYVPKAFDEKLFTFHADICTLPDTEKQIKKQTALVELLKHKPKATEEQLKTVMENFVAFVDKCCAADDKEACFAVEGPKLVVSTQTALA
T3 sequence (Q9Y4D7 47-1925): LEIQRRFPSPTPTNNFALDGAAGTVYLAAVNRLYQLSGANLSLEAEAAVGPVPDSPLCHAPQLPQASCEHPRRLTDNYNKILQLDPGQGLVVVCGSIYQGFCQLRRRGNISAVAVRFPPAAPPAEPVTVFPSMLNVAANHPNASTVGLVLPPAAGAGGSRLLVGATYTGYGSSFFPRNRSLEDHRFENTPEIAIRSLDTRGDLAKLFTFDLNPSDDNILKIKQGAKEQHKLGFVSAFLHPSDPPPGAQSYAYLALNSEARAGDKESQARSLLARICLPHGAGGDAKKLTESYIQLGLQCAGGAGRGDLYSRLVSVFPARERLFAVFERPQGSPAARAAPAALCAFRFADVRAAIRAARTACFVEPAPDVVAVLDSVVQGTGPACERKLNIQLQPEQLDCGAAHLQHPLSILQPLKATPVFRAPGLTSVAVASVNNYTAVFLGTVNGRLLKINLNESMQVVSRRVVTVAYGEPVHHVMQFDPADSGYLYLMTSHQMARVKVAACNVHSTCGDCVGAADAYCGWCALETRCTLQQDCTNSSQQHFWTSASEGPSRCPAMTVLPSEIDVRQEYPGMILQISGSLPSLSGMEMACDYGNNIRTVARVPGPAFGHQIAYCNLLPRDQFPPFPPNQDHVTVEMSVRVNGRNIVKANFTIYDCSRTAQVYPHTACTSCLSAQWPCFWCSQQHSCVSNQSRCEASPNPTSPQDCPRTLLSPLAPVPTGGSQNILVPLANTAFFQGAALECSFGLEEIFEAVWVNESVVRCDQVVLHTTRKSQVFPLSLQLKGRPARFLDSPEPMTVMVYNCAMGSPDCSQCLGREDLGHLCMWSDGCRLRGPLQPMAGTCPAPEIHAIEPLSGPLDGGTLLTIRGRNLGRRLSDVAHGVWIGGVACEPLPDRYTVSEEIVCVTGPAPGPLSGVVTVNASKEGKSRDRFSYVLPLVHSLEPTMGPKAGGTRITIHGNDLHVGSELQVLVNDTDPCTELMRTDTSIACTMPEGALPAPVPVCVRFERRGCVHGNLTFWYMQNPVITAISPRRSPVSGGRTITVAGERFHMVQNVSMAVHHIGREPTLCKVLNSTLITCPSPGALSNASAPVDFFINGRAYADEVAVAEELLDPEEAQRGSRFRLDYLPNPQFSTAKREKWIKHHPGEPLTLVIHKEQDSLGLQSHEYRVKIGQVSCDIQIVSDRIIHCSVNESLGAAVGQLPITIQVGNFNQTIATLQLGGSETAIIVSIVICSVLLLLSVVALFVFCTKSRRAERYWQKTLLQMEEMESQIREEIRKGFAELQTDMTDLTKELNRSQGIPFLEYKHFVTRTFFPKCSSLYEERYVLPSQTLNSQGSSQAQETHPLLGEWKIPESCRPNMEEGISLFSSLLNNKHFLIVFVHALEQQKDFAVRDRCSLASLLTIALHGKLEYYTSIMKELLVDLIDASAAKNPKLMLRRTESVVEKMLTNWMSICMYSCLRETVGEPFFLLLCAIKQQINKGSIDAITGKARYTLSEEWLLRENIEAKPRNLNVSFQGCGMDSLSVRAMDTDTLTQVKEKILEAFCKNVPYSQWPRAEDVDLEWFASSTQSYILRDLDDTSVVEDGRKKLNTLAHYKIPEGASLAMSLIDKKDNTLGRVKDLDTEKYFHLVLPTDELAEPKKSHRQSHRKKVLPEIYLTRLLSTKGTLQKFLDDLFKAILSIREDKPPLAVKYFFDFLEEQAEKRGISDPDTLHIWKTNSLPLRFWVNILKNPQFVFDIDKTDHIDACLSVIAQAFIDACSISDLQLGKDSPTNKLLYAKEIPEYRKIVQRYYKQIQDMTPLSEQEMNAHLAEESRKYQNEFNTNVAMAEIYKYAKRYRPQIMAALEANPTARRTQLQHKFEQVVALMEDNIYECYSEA
Chain of mouse plexin D1 (on vessels in mouse tissue) (mouse) (Q3UH93 49-1925): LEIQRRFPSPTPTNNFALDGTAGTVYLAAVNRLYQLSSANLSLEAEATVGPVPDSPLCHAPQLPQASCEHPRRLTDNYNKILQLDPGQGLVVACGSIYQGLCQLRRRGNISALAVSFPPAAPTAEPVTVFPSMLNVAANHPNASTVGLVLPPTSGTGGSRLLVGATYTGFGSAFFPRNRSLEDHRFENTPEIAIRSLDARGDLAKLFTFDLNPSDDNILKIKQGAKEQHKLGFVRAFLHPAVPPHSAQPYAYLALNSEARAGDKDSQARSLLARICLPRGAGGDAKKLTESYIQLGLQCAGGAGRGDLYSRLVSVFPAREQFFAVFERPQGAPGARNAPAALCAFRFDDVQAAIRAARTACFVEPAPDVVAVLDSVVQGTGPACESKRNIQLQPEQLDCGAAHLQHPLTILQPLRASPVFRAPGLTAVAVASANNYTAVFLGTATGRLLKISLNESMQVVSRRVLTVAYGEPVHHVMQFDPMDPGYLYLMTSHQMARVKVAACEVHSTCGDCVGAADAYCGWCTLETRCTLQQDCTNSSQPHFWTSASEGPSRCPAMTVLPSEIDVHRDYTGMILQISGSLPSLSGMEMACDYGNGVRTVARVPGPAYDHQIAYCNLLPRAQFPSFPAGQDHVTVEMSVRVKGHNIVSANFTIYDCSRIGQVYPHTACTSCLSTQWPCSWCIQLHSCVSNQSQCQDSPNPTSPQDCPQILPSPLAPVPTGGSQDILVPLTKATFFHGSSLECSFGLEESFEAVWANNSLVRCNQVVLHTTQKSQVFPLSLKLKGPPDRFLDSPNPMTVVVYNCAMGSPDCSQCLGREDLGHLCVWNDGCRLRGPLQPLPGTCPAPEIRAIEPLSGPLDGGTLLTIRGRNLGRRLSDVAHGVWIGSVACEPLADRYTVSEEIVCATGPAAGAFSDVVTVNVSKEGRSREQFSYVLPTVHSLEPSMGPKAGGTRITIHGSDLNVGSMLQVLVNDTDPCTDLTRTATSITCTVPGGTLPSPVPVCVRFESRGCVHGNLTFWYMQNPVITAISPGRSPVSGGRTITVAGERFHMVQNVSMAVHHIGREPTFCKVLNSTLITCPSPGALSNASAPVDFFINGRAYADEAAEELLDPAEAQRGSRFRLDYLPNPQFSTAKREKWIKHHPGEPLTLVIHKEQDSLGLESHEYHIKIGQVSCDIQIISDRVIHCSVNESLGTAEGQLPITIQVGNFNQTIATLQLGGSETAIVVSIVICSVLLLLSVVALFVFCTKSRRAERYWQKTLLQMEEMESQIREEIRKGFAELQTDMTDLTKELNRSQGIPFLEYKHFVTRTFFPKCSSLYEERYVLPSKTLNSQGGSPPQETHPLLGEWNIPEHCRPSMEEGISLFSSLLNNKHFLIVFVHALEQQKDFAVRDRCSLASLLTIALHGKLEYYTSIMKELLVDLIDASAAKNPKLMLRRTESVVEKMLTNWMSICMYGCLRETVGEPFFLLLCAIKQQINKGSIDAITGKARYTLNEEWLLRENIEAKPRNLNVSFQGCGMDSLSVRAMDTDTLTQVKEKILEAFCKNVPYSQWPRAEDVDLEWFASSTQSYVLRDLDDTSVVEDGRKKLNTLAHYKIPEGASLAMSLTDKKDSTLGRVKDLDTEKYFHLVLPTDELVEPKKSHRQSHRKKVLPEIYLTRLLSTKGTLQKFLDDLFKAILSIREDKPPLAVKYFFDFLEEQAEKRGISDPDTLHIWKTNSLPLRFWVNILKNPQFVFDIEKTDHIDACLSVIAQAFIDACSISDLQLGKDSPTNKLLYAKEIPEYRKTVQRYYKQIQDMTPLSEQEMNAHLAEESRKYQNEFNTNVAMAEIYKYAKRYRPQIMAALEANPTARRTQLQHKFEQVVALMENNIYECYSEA

B1: M13 phage displaying single domain antibody F8 (VHH)
VHH: QVQLQESGGGLVQAGDSLRLSCAASGRTFSTLIMAWFRQAPGKEREFVAAISRGGGSTSYADSVKGRFTISRDNSKNAVYLQMNSLKPDDTAVYYCNARYGSRIYWGQGTQVTVSS
notes: Whole M13 phage particle carrying F8; detected with anti-M13 antibody; also called phage F8; M13 phage associated antibody F8; not shown: M13 phage coat protein to which the sdab is fused (phagemid pHENIXHis8VSV); not described
With B1, the binding result with Bovine serum albumin [1] was “no binding (tested: 10^10 phages)”. In experiment [2], this molecule registered a quantification of phage homing: colony-forming phages eluted from laser-dissected tumor tissue against unaffected brain of 20 fold.

B2: Llama single domain antibody F8 (soluble sdab, C-terminal 8*His-tag and VSV-G-tag) (VHH)
VHH: QVQLQESGGGLVQAGDSLRLSCAASGRTFSTLIMAWFRQAPGKEREFVAAISRGGGSTSYADSVKGRFTISRDNSKNAVYLQMNSLKPDDTAVYYCNARYGSRIYWGQGTQVTVSS
notes: also called sdab F8; V-H single domain antibody F8
For B2, the affinity in experiment [3], expressed as Kd, was 35 nM. The binding result with Bovine serum albumin [4] was “no binding”.

B3: Llama single domain antibody A12 (soluble sdab, C-terminal 8*His-tag and VSV-G-tag) (VHH)
VHH: QVQLQESGGGLVQPGGSLRLSCAASGSSISINNWGWYRQAPGKQRERVAAISGGGKTVYADSVKGRFTISRDNAKNTVYLQMNSLKPEDTAVYYCRAVRKSTGWLRGLDVWGQGTQVTVSA
notes: also called sdab A12; V-H single domain antibody A12
In the case of B3, the Kd – broadly, a measure of binding affinity in units of concentration – in experiment [3] came out at 21 nM. For the same molecule, the figures for the binding result (with Bovine serum albumin [4]; in experiment [5]) were “no binding” and “binds”, respectively.

B4: M13 phage displaying single domain antibody A12 (VHH)
VHH: QVQLQESGGGLVQPGGSLRLSCAASGSSISINNWGWYRQAPGKQRERVAAISGGGKTVYADSVKGRFTISRDNAKNTVYLQMNSLKPEDTAVYYCRAVRKSTGWLRGLDVWGQGTQVTVSA
notes: Whole M13 phage particle carrying A12; detected with anti-M13 antibody; also called phage A12; M13 phage associated antibody A12; not shown: M13 phage coat protein to which the sdab is fused (phagemid pHENIXHis8VSV); not described
Turning to B4, the binding result with Bovine serum albumin [1] is “no binding (tested: 10^10 phages)”.
